15 sequences from the DeepSol protein solubility set can be followed below.

The nature of this data set: soluble on expression in E. coli; label from the status in PepcDB or PDB records.
For the sequence “MEPNNLKEELVSVFEKACSSHKERLDFICSVRESDTFSNVDVPLAPIKTIIEIAKNEENQTEILKLAIENIKTLSTVGSGQYIASHFSTHNEVAIIFCISYFLYHFNFLHDENKKQLLKRAFEAVAEKIADYLNEN”, the “soluble on expression in E. coli” value is given as “soluble”.
Consider “MEPRTIACPHKGCTKMFRDNSAMRKHLHTHGPRVHVCAECGKAFVESSKLKRHQLVHTGEKPFQCTFEGCGKRFSLDFNLRTHVRIHTGDRPYVCPFDGCNKKFAQSTNLKSHILTHAKAKNNQ”, for which the “soluble on expression in E. coli” value is “soluble”.
With “MEQQIQMDEQENDESQGNDDQQNMSMSSSELHTMQDDHPGILLKTNTRMSITVKKLHVCGEWKWLQGGEDTCGICRMEFESACNMCKFPGDDCPLVLGICRHAFHRHCIDKWIAAPTNQPRAQCPLCRQDWTIVE”, the “soluble on expression in E. coli” value was “not soluble”.
As for “MEQQLNLGHLLTAARLLDIGALDISSLDLGALTSTSSSPGSSSPAMFDLSNESELRSLFCGKLKVDKKQSSCASNASTSSQPYCSSPPARKSSKHSRTAHNELEKTRRANLRGCLETLKMLVPCVSDATRNTTLALLTRARDHIIELQDSNAAQMKKLNDLRDEQDELVAELAQLQADEEVAQATSQACQTLSQSRPESRASSFTSTSSRDSPCYLEYSPSSKPMDSHKPTIIDLYAEGLIPRGPITFPRPLVYPHNVFDLMNLPPTPFDVSQFLPINLQV”, the “soluble on expression in E. coli” value is “not soluble”.
As to “MEQRDMKTVFLLDRSAKFVENCNETFDVTIREGPKQKKLQFEKTIWTWCLEGIFEMHRILSDVYPRGTLQLRFALADFMGKMLDTQWTDGFLTREELGELIETVSRPSEANTDITPIGGLTMAIEALAVQSPEQRNYNYDVRYSANKRTAQNSEVIRVTRELRGLPPLPTVQNAGNLIMYTRLNTQEEMEQLQTEIVELVVSRNKIADAPSNKTFCPITSLRLFIVNYYATGDECTVKTHSLQAHPDLPLLKIWVISRKAADMCDAIHSLLVDAFDLGSTTVTKIPMKEDNRGSSNYDVELFHSGKVHAMLKENNLIDTVSKKGDSDKGVTYDTMRLTWTTAPKTKWSLFPYHGAAVPCTTAQAYSRPSACLTQFVRDGRCVMLDSEKTTELGMNMHEKLVSHLLIANRGRIFIQEIDFMQKKADRIAGKLKRPRVLHAPEDPINMNQLRHTYKQLELRFVAKNRMDDNLTEKETEKWTGLKNSDLKKRFQRISKNIPCFAADTFIFNEKVTPKLEPLISLITKTTLSENDVDKCKQCIVTLYQMKNERQYVISPESDIKISSVRNLKDPDEQLRVTFVELAKHIMKYVTFSEKHKEIYKTYMTTLNVDKLLEVDLDDDEAVDKMFVKFSFFGKSDTASKTDEDEDSSDDEDEEILKSPALKKLFGYVDARDERKYEELYGQGFKKKKPEVEEKPIVMAKEIKVDIFSNMCDMLEVKESKIRREFVGRETHGNIAPLYPQLAEKLERPASPAATERGTERVRNTAERGGSGTPPPGGRRNFQ”, the “soluble on expression in E. coli” value is “not soluble”.
With “MERDGYKCRICDHSYLDIHYKDGNVENKNLENLIVLCKQCHYRLHQKERMESIKQAFEDFLDELSKNPIEVVIDFSFKKIVESNEEKIRREIIQGFTRPFGVISRIQEKVRDAIMKEIEEEIEKEQASTPEHLRKVVLERNNYRCSVCGYGYLEVHHVDGNILNNTLDNLVTLCRRCHRKVHYHPSFHTTPEDMDKCIRSFHHEFYSTIYEIMKNKKGNIRISIKFDQLGVKGVKISRAQFKRINGLFNHEVINDGIFKQWEREIKNYLSRLEWEQQKEIYRNVYFLLECILPKDSFEAFVNLARKGKFDRRTLREAKKVLKNSIKLEHHHHHH”, the “soluble on expression in E. coli” value was “soluble”.
For “MERGRSDMEMINNMANCLILLSKAHQNDTKSRVFACKTCNKEFPSFQALGGHRASHRRSAALEGHAPPSPKRVKPVKHECPICGAEFAVGQALGGHMRKHRGGSGGGGGRSLAPATAPVTMKKSGGGNGKRVLCLDLNLTPLENEDLKLELGRFIF”, the “soluble on expression in E. coli” value is “soluble”.
In the case of “MERILEKVRAKSEIPVYDKSIENVLSAILTTNDFWKIVDLSEEPLPLVADIIRILEEEGLVKISNGIEFTEKGNEFIKSYGIGAKDNSVCECCEGRGVSLKNYQDLLERFKEIVKNRPMPKHEYDQGFVTPECTISRIALMNSRGDLFNKDVLVLGDDDLTSIALMLSNLPKKIVVVDIDDRLINFIKEVAEQLNYKNIEVITLDLRKPLPEKYSRAFDTFITDPPETVYAVKTFIGRGISALKGERRAGYFGITRRESSLDKWREIQRTLINDFNVVITDIIRNFNHYVNWGYEEETRAWKLAPVKKKPEDIWYKSYMFRIETLKDSRGFEEEVDVGDELYNDAESSTT” it was “not soluble”; in that of “MERKKAVVLLSGGLDSSTVLAYAISLGYEVHAISFDYGQRHSREMNSSEELAKYYGVDRKIVHVDLRSIGKSALTDDIEVPSRDLESIPEEIPVTYVPARNTIFLSIAAAYAESIGSTDIFIGANAIDYSGYPDCRPEYFNAMEKALTLGTEIGLRKGMHINVPLQYLTKADIIRMGLKLGVPYEKTWSCYKGGEKACGECDSCLLRLKGFMEAGSEDPLEYEKYPTFYKDYIEKRKK”, “soluble”.
In the case of “MERLEEARKRLEEARRVAVLTGAGISKPSGIPTFRDAEGLWKNFNPLDYATPEAYARDPEKVWAWYAWRIQKVREAKPNPAHYALVELERRILSRGGSFLLVTQNVDGLHALAGSQNLVELHGNLLRARCEACGKRFPLPEAFAPPPFCPACGHRARPDVVWFGEFLPEGAWERAERAFAEADFALVVGTSAEVEPAASLGRIAFASGAYLVEVNPEPTPLTPLAHLSLRTGAVEGMALLLPPSPEDQAEGHLS” it was “soluble”.
Regarding “MERNMKNKNKMLDLMLEAVNNIKDAMPKMQIGAPVRQNIDAGERPCLQGYYTAAELKPVLDRPPQDSNAPGASGKAFKTTNLSVEEQKEKERGEAKHCFNAFASDRISLHRDLGPDTRPPEYVEEYLLFILYHQALQGREG”, the “soluble on expression in E. coli” value is given as “not soluble”.
In the case of “MERSAIQIPAGRIDDAVAKVDGLVGELMQNTGIPGMAVAIVHGGKTLYAKGFGVRDVGKGGGPDNKVDADTVFQLASVSKSVGATVVAHAVTDNVVTWDTPVVSKLPWFALRDPYVTGQVTIADLYSHRSGLPDHAGDLLEDLGYDRRQVLQRLKYLPLAPFRISYAYTNFGVTAAAEAVAAAAGQSWEDLSDEVLYRPLGMGSTSSRFTDFLARPNHAVNHVKVADRWEARYQRDPDAQSPAGGVSSSLNDMTHWLAMVLADGVYNGRRITSPEALLLVYTPQVISRHPVSPRARASFYGYGFNVGVTSSGRTEYSHSGAFGLGAAANFVVLPSEDLAIIALTNAGPIGVPETLTAEFMDLVQYGQVREDWAALYKKAFAPLNELAGSLVGKQSPANPAPSRPLNDYVGVYANDYWGPATVTYHDGQLRLSLGPKNQTFDLTHWDGDTFTFTLSTENALPGSISKATFAGDTLNLEYYDADKLGTFTRLEHHHHHH” it was “not soluble”.
In the case of “MESISRSPRIFLLSLGRWNSGISVCWYSPRHPRAIISDPAPRIAREHATVLFGDSHASEENNAARRRNFHNKKTSRGGNDDKQSRGNNAEKRKRRDPMTSQGPDSDEDELQEMTNKDRLKRAKRKGIDPMDPGAHGGAPVEKWSDGLRVDHVTGADVTAGGPLFQQRPYPAPGAILRKHKPQDEEDDQQFNFLKSF” it was “not soluble”.
In the case of “MESTQKDIKLEPDEFNYIIAPGAPESENLAENPENPVDLSEIPLETKPAWFPSSKGRSIVWEHITWVAESQRAACNYCAAEFQVKGGTSALLRHLKTIHPAAINFDPENPPPVARRKRKKMEDYTIVTEDTKSYMDNLLEQFLNVDDSAPRGGLPDHDSPQHMLVVDPQSRADSEIDAVIRNLQQETEQNGLLEPEPDQALKKLLGIDDGRCEEVIAIAAPIQQDEEKQVSSSSGGAQTKKRRADEQKLTENPALNSGKFSLSILSAIRRPPLPSSTATSSSAAAPQIPAMTSSAVASATSAAAAATPMMPAKYNAQAVQILDFEAKVLYNQSLHSTIAREDAMTTYYRMKSRKLELEIKKLERELGEEQDEAQEHEE” it was “not soluble”.
Regarding “MESVLNNEKAIVVFSGGQDSTTCLFYAKKHFKEVELVTFNYGQRHDTEIEVAKQIAQDQGMKHHVLDMSLLSQLTPNALTQHDMEITNNEDGIPNTFVPARNLLFLSFAGALAYQIGAKHIITGVCETDFSGYPDCRDSFIKSMNVTLSLAMDKDFVIHTPLMWLNKAETWKLSDELEVLDYIRTKTLTCYNGIIGDGCGECPACHLRQRGLNQYLESKGAL”, the “soluble on expression in E. coli” value was “not soluble”.
